From article PMC3912200, “Structural and Functional Characterization of Cargo-Binding Sites on the μ4-Subunit of Adaptor Protein Complex 4” (PLoS ONE, 2014)
Substitutions are numbered along the chain they refer to. Names may count otherwise.

Key:
[1] = biological target: T1, recombinant μ4 C-terminal domain, wild-type (Homo sapiens, UniProt O00189); test: Isothermal titration calorimetry with wild-type μ4; type: binding; details: canonical YXXØ signal peptides, 28°C, pH 7.4, stoichiometry and Kd N/D
T1 construct: recombinant C-terminal domain of human μ4 (residues 160-453); GST followed by TEV protease cleavage site (N, cleaved yes); made in house; host or cells: E. coli B834(DE3)pLysS
T1 sequence (O00189 160-453): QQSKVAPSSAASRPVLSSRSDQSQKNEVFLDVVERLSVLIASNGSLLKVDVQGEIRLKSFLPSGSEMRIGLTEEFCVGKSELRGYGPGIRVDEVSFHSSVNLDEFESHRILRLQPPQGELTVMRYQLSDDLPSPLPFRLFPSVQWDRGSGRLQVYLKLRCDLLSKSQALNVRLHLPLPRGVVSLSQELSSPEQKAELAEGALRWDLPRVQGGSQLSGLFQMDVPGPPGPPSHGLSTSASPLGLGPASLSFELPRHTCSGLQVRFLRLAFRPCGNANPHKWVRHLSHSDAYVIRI
Procedure: Recombinant μ4 C-terminal variants were dialyzed overnight at 4°C against excess ITC buffer (50 mM Tris-HCl, pH 7.4, 150 mM NaCl), and an APP peptide ([sequence]), a CD63 peptide (SGYEVM), or a TGN38 peptide (SDYQRL; New England Peptide, Gardner, MA) were also prepared in ITC buffer. All ITC experiments were carried out at 28°C using an iTC200 instrument (GE Healthcare). […] Titration curves were analyzed using Origin software (MicroCal). The binding constant corresponding to each μ4 construct was calculated by fitting the curves to a one-site model.
Isothermal titration calorimetry of recombinant C-terminal domain of wild-type μ4 with the TGN38 SDYQRL peptide (C), or the CD63 SGYEVM peptide (D).

C-terminal domain of μ3A = details: previously shown; ref [18]; cited from earlier work
Source text: (§1) This tyrosine-based signal is related to the YXXØ motif, which is the signal contained in the cytosolic tail of transmembrane proteins that binds to a different site on the μ2 subunit of AP-2 [28], or on the μ3A subunit of AP-3 [30]. In this study, we wanted to determine whether this putative second binding site on μ4, referred here as the μ2-binding site (Figure 1, A and B), played any role in the binding to the YKFFE signal of APP ...

cytosolic tail of APP = details: mutations at μ4-binding site; previously identified; ref [18]; cited from earlier work
Source text: as §1

APP-GFP = test: Distribution of APP-GFP in MDA-MB-231 cells; type: cell-based, human; details: for APP redistribution (figure title): APP-GFP F615P/D664A, EEA1, TGN46 staining; for change in distribution of APP: HA-epitope-tagged constructs, 24 h after transfection, EEA1/TGN46 immunofluorescence
Procedure: H4 human neuroglioma or MDA-MB-231 human mammary gland epithelial cells obtained from the American Type Culture Collection (Manassas, VA) were maintained in DMEM (H4) or DMEM/F12 (MDA-MB-231) supplemented with 10% (v/v) fetal bovine serum (FBS), 100 U/ml penicillin and 100 µg/ml streptomycin (Life Technologies). Transfections were carried out using Lipofectamine 2000 (Life Technologies) for 1 h at 37°C in the absence of FBS, and cells were analyzed 16, 24 or up to 36-h after transfection, for which we observed no notorious signs of loss in cell viability. SDS-PAGE, immunoblotting, and immunoprecipitation were performed as described. H4 cells after 16 h of transfection were washed twice with cold phosphate buffered saline supplemented with 0.1 mM CaCl2 and 1 mM MgCl2 (PBS-Ca/Mg), and incubated at 4°C for 1 h in lysis buffer (50 mM Tris-HCl pH 7.4, 150 mM NaCl, 1 mM EDTA, 1% (v/v) Triton X-100, and a cocktail of protease inhibitors). Soluble extracts were subjected to overnight immunoprecipitation at 4°C either with rabbit anti-HA-epitope antibody (kindly provided by R. Hegde, MRC Laboratory of Molecular Biology, Cambridge, UK) or with mouse antibody to the ε subunit of AP-4 (BD Biosciences) immobilized onto protein A- or a 1∶1 mix of protein A- and protein-G Sepharose beads (GE Healthcare), respectively. Soluble extracts and immunoprecipitates were processed by SDS-PAGE and blotted with horseradish peroxidase-conjugated mouse anti-HA antibody (Macs Miltenyi Biotec) or with mouse antibody to the ε subunit of AP-4.
Indirect immunofluorescence staining of fixed, permeabilized cells was performed as previously described, using sheep polyclonal antibody anti-TGN46 (Serotec), and mouse monoclonal antibody anti-EEA1 (BD Biosciences) or rabbit polyclonal antibody anti-EEA1 (Santa Cruz Biotechnology), followed by the secondary antibodies Alexa-647–conjugated donkey anti-mouse IgG, Alexa-594–conjugated donkey anti-rabbit IgG, or Alexa-594– or -647–conjugated donkey anti-sheep IgG (Life Technologies). Images were acquired either with an Olympus FluoView FV1000 scanning unit fitted on an inverted Olympus IX81 microscope and equipped with a PlanApo 60x oil immersion objective (NA 1.40; Olympus, Melville, NY), using similar settings as described previously, or with an AxioObserver.D1 microscope equipped with a PlanApo 63x oil immersion objective (NA 1.4), and an AxioCam MRm digital camera (Carl Zeiss). Quantitative analysis of colocalization was performed as we previously described, with minor modifications. Briefly, 12-bit images were acquired under identical settings avoiding signal saturation, and corrected for noise, cross-talk, and background signals on each set of images. The signals of TGN46 or EEA1 in each set of images were used in Image J (version 1.44o; Wayne Rasband, NIH, http://imagej.nih.gov) to define masks regarded as Golgi/TGN or early endosomes localization, respectively. The percentage of localization in each compartment was calculated for each cell (n = 10–15) subtracting either the Golgi/TGN or the early endosomes mask from the total integrated pixel intensity of APP-GFP, and the remainder of the signal was considered as in the ‘rest of the cell’.
We next examined the functional role of both the μ2- and the μ4-binding site of μ4 on the intracellular trafficking of APP. We have shown that the YKFFE-μ4 interaction is functional in vivo because its disruption by depletion of μ4 by RNAi produces a shift in the distribution of APP from endosomes to the TGN [18]. To evaluate now the function of each binding site for tyrosine-based signals, we tested a dominant-negative effect by overexpressing untagged or HA-epitope-tagged full-length wild-type μ4 or the variants untagged or HA-epitope-tagged μ4-D190A, μ4-D190S, μ4-F255A or μ4-R283D in H4 neuroglioma cells, as well as in MDA-MB-231 mammary gland epithelial cells, and examined by immunofluorescence the distribution of APP-GFP. […]

## SDYQRL [TGN38 SDYQRL peptide, peptide bearing the canonical YXXØ signal of TGN38]
[1]
  interaction (ITC): undetectable
C-terminal domain of μ3A
  binding to C-terminal domain of μ3A: bind well

## SGYEVM [CD63 SGYEVM peptide, peptide bearing the canonical YXXØ signal of CD63]
[1]
  interaction (ITC): undetectable
C-terminal domain of μ3A
  binding to C-terminal domain of μ3A: bind well

B1: H256A: μ4 mutant, μ4-binding site, reported previously (protein, UniProt O00189 1-453, looked up, variant H256A)
AP-4 complex subunit mu-1: MISQFFILSSKGDPLIYKDFRGDSGGRDVAELFYRKLTGLPGDESPVVMHHHGRHFIHIRHSGLYLVVTTSENVSPFSLLELLSRLATLLGDYCGSLGEGTISRNVALVYELLDEVLDYGYVQTTSTEMLRNFIQTEAVVSKPFSLFDLSSVGLFGAETQQSKVAPSSAASRPVLSSRSDQSQKNEVFLDVVERLSVLIASNGSLLKVDVQGEIRLKSFLPSGSEMRIGLTEEFCVGKSELRGYGPGIRVDEVSFASSVNLDEFESHRILRLQPPQGELTVMRYQLSDDLPSPLPFRLFPSVQWDRGSGRLQVYLKLRCDLLSKSQALNVRLHLPLPRGVVSLSQELSSPEQKAELAEGALRWDLPRVQGGSQLSGLFQMDVPGPPGPPSHGLSTSASPLGLGPASLSFELPRHTCSGLQVRFLRLAFRPCGNANPHKWVRHLSHSDAYVIRI
Cytosolic tail of APP
  effect of mutation on binding to the APP YKFFE signal: null effect

B2: µ4-R283D-HA: HA-epitope-tagged full-length μ4-R283D, overexpressed (protein)
chain: B1 AP-4 complex subunit mu-1 with A256H, R283D
modifications: left off: HA, end not stated, kept
APP-GFP; 24 h
  APP redistribution (figure title): APP redistributes from endosomes to the TGN
APP-GFP
  change in distribution of APP: strong redistribution of APP from endosomes to the TGN

B3: L261S: μ4 mutant, μ4-binding site, Y2H construct (protein, UniProt O00189 1-453, looked up, variant L261S)
AP-4 complex subunit mu-1: B1 AP-4 complex subunit mu-1 with A256H, L261S
Cytosolic tail of APP
  effect of mutation on binding to the APP YKFFE signal: sensitivity

B4: R283A: μ4 mutant, μ4-binding site, reported previously (protein, UniProt O00189 1-453, looked up, variant R283A)
AP-4 complex subunit mu-1: B1 AP-4 complex subunit mu-1 with A256H, R283A
Cytosolic tail of APP
  effect of mutation on binding to the APP YKFFE signal: null effect

B5: E265A: μ4 mutant, μ4-binding site, reported previously (protein, UniProt O00189 1-453, looked up, variant E265A)
AP-4 complex subunit mu-1: B1 AP-4 complex subunit mu-1 with A256H, E265A
Cytosolic tail of APP
  effect of mutation on binding to the APP YKFFE signal: null effect

B6: R283D: μ4 mutant, μ4-binding site, Y2H construct (protein, UniProt O00189 1-453, looked up, variant R283D)
AP-4 complex subunit mu-1: B1 AP-4 complex subunit mu-1 with A256H, R283D
Cytosolic tail of APP
  effect of mutation on binding to the APP YKFFE signal: sensitivity

B7: S257A: μ4 mutant, μ4-binding site, reported previously (protein, UniProt O00189 1-453, looked up, variant S257A)
AP-4 complex subunit mu-1: B1 AP-4 complex subunit mu-1 with A256H, S257A
Cytosolic tail of APP
  effect of mutation on binding to the APP YKFFE signal: null effect

B8: µ4-F255A-HA: HA-epitope-tagged full-length μ4-F255A, overexpressed (protein)
chain: B1 AP-4 complex subunit mu-1 with F255A, A256H
modifications: left off: HA, end not stated, kept
APP-GFP; 24 h
  APP redistribution (figure title): APP redistributes from endosomes to the TGN
APP-GFP
  change in distribution of APP: strong redistribution of APP from endosomes to the TGN

B9: µ4-D190A-HA: HA-epitope-tagged full-length μ4-D190A, overexpressed (protein)
chain: B1 AP-4 complex subunit mu-1 with D190A, A256H
modifications: left off: HA, end not stated, kept
APP-GFP
  change in distribution of APP: minor redistribution of APP to the TGN

B10: F255A: μ4 mutant, μ4-binding site, Y2H construct (protein, UniProt O00189 1-453, looked up, variant F255A)
AP-4 complex subunit mu-1: B1 AP-4 complex subunit mu-1 with F255A, A256H
Cytosolic tail of APP
  effect of mutation on binding to the APP YKFFE signal: sensitivity

B11: μ4-D190S: D190S mutant of μ4 (C-terminal domain in vitro; full-length, HA-tagged or untagged, in cells) (protein)
chain: T1 sequence (O00189 160-453) with D31S
modifications: left off: GST, N-terminal, cleaved
APP-GFP; either HA-epitope-tagged or untagged, 24 h
  effect on localization of APP-GFP in endosomes: little or no effect

B12: μ4-R283D: μ4 with the single mutation R283D at the μ4-binding site (C-terminal domain; untagged full-length in b45) (protein)
chain: T1 sequence (O00189 160-453) with R124D
modifications: left off: GST, N-terminal, cleaved
APP-GFP; 24 h
  APP redistribution (figure title): APP redistributes from endosomes to the TGN
